In patent US20030166192A1 (published 2003):

B1: Pseudo-ICE (other)
chain: MADKVLKEKRKLFIHSMGEGTINGLLDELLQTRVLNQEEMEKVKRENATVMDKTRALIDSVIPKGAQACQICITYICEEDSYLAETLGLSAGPIPGN
modifications: 35S-methionine label in the in vitro assay
notes: Used for the 35S-labelled in vitro translated product (made from a pcDNA3 construct); also called 35S-labeled Pseudo-ICE; in vitro translated Pseudo-ICE
B2: ICE-Like (other)
chain: MADQLLRKKRRIFIHSVGAGTINALLDCLLEDEVISQEDMNKVRDENDTVMDKARVLIDLVTGKGPKSCCKFIKHLCEEDPQLASKMGLH
modifications: 35S-methionine label in the in vitro assay
notes: Used for the 35S-labelled in vitro translated product (made from a pcDNA3 construct); also called 35S-labeled ICE-Like; in vitro translated ICE-Like
B3: T7-tagged ICE-Like (other, not shown: small tags and cut ends)
chain: B2 chain
notes: Expressed from pcDNA3 in 293 T cells, or from pMSCVneo retroviral vector in THP-1 cells; also called T7-ICE-Like
B4: GST-conjugated ICE-Like (other)
chain: B2 chain
notes: GST is put first by the usual make of pGEX vectors; also called ICE-Like-GST; GST-ICE-Like; not shown: glutathione-S-transferase (GST) from vector pGEX-5X 3

Legend:
GST = target: T1, GST (UniProt P08515 1-218 = GST); assay: GST pull-down on glutathione resin of in vitro translated 35S-labeled protein, autoradiography [panel B]
T1 construct: also called gluthatione-S-transferase; GST alone
T1 sequence (P08515 whole entry): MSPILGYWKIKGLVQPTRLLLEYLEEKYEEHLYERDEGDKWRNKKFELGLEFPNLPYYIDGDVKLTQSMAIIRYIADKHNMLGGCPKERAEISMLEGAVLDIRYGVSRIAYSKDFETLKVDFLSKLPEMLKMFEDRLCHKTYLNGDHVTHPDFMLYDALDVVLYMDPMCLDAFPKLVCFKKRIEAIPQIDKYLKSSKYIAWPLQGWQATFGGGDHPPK
Protocol: (§1) Cells were then centrifuged at 10000 g for 15 min and supernatants were incubated for 2 h at 4° C. with gluthatione Sepharose 4B resin (Amersham Pharmacia Biotech). The protein-bound resin (30 μl) was washed with GST buffer and incubated overnight at 4° C. in the presence of 5 μl of ³⁵S-labeled in vitro-translated products. Labeled proteins were prepared from pcDNA3 constructs by in vitro transcription and translation in the presence of ³⁵S-methionine using T7-coupled transcription/translation TNT kit according to the manufacturer's instructions (Promega, Madison, Wis.). Samples of the protein-bound resins were washed three times in GST buffer, boiled in sodium dodecyl sulfate (SDS) Laemmli sample buffer and fractionated by electrophoresis on an SDS-polyacrylamide gel. Proteins were then visualized by autoradiography.

CRADD [1] = target: T2, CRADD (human, UniProt P78560 1-199, limits assumed); assay: GST pull-down in vitro or co-immunoprecipitation from 293 T cells (T7-CRADD with Flag-Pseudo-ICE, Panel C of FIG. 2)
T2 construct: also called T7-tagged CRADD
T2 sequence (P78560 whole entry): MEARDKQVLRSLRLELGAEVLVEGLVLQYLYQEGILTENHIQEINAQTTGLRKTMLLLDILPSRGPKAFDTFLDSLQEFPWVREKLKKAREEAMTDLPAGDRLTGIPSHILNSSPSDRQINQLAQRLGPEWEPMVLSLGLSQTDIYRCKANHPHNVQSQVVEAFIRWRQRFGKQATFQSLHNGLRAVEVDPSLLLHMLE
Protocol: (§2) Human embryonic kidney 293 T cells, were cultured in […] dishes in Dulbecco modified essential medium (DMEM) supplemented with 10% fetal bovine serum (FBS) and antibiotics (Life Technologies). Cells at 50% confluency, were transiently co-transfected with equal amounts of T7-pcDNA3 and Flag-pCMV2 constructs (total DNA of 10 μg/dish) in OptiMEM using the lipofectamine method according to the manufacturer's recommendations (Life Technologies). Twelve hours after transfection, OptiMEM was replaced with DMEM/10% FBS. Twenty four hours later, cells were lysed in 300 μl of a buffer containing 25 mM tris(hydroxymethylaminomethane), pH 7.6, 150 mM NaCl, 1% nonidet-P40, and PMSF. Samples were centrifuged. One third of the supernatant was put aside to verify by Western blot the expression of the proteins. The remaining 200 μl of supernatant were incubated for 2 h at 4° C. with anti-Flag M5 plus M2 monoclonal antibodies (Ab; Sigma). The immune complexes were precipitated overnight at 4° C. with protein-G Sepharose (Amersham-Pharmacia Biotech), washed extensively and then eluted by boiling in SDS-sample buffer.

RICK [2] = target: T3, RICK (UniProt O43353 1-540, limits assumed, 35S label in the in vitro assay); assay: restated from Example 3; construct not named
T3 construct: also called 35S-labeled RICK; RIP2
T3 sequence (O43353 whole entry): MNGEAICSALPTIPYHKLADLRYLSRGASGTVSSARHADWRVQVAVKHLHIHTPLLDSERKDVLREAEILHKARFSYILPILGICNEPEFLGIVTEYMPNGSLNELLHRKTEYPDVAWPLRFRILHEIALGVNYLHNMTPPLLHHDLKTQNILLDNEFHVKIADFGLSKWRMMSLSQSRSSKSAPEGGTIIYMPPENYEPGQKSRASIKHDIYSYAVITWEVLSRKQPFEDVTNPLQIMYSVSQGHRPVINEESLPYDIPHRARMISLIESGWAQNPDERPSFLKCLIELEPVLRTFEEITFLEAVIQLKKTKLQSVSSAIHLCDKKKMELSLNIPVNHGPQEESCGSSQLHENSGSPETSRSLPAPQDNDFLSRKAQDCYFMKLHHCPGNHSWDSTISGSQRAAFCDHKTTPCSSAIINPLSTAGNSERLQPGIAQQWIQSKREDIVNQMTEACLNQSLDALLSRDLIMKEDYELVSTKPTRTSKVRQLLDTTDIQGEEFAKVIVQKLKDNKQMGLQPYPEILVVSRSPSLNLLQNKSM

c-CLAP = target: T4, c-CLAP (human, UniProt O95999 1-233, limits assumed); assay: GST pull-down in vitro or co-immunoprecipitation from 293 T cells (data not shown)
T4 sequence (looked up): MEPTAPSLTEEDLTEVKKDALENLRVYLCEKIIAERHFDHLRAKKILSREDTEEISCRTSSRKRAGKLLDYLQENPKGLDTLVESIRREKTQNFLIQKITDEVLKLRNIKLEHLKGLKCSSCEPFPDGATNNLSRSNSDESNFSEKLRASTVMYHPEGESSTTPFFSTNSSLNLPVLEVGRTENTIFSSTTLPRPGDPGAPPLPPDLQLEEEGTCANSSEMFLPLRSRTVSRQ
Protocol: as §1
as §2, with “buffer. The eluted proteins were resolved by SDS-PAGE and detected by Western blot analysis with horseradish peroxidase (HRP)-conjugated anti-T7 Ab (Novagen, Madison, Wis.). Bands were then detected using enhanced chemoluminescence kit (Amersham Pharmacia Biotech).” for “buffer.”

pro-caspase-4 = target: T5, pro-caspase-4 (UniProt P49662 1-377, limits assumed); assay: as above
T5 sequence (looked up): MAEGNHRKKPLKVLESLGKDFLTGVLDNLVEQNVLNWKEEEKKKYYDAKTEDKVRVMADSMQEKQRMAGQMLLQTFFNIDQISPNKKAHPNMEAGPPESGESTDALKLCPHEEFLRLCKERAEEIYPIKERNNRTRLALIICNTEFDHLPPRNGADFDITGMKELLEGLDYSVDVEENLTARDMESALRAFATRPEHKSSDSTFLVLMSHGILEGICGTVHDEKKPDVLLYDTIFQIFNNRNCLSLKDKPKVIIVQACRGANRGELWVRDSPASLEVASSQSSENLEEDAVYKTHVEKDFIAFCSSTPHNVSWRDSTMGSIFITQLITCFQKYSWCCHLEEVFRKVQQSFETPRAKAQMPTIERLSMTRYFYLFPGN
Protocol: as §1
as §2, with “buffer. The eluted proteins were resolved by SDS-PAGE and detected by Western blot analysis with horseradish peroxidase (HRP)-conjugated anti-T7 Ab (Novagen, Madison, Wis.). Bands were then detected using enhanced chemoluminescence kit (Amersham Pharmacia Biotech).” for “buffer.”

pro-caspase-2 = target: T6, pro-caspase-2 (UniProt P42575 1-452, limits assumed); assay: as above
T6 sequence (looked up): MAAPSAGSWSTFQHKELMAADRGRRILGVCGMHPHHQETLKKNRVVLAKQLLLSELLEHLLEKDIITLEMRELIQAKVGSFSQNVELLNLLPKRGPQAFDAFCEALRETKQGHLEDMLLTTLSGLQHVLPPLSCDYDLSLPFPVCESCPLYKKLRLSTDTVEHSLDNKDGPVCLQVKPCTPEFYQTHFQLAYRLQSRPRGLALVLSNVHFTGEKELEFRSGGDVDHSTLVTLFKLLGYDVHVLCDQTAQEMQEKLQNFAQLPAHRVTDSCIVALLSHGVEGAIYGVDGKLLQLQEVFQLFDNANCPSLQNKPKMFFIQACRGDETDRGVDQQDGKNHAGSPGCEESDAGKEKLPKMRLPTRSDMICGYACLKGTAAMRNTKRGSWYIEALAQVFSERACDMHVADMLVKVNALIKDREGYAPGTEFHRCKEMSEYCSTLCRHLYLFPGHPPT
Protocol: as §1
as §2, with “buffer. The eluted proteins were resolved by SDS-PAGE and detected by Western blot analysis with horseradish peroxidase (HRP)-conjugated anti-T7 Ab (Novagen, Madison, Wis.). Bands were then detected using enhanced chemoluminescence kit (Amersham Pharmacia Biotech).” for “buffer.”

Apaf-1 = target: T7, Apaf-1 (human, UniProt O14727 1-1248, limits assumed); assay: as above
T7 sequence (looked up): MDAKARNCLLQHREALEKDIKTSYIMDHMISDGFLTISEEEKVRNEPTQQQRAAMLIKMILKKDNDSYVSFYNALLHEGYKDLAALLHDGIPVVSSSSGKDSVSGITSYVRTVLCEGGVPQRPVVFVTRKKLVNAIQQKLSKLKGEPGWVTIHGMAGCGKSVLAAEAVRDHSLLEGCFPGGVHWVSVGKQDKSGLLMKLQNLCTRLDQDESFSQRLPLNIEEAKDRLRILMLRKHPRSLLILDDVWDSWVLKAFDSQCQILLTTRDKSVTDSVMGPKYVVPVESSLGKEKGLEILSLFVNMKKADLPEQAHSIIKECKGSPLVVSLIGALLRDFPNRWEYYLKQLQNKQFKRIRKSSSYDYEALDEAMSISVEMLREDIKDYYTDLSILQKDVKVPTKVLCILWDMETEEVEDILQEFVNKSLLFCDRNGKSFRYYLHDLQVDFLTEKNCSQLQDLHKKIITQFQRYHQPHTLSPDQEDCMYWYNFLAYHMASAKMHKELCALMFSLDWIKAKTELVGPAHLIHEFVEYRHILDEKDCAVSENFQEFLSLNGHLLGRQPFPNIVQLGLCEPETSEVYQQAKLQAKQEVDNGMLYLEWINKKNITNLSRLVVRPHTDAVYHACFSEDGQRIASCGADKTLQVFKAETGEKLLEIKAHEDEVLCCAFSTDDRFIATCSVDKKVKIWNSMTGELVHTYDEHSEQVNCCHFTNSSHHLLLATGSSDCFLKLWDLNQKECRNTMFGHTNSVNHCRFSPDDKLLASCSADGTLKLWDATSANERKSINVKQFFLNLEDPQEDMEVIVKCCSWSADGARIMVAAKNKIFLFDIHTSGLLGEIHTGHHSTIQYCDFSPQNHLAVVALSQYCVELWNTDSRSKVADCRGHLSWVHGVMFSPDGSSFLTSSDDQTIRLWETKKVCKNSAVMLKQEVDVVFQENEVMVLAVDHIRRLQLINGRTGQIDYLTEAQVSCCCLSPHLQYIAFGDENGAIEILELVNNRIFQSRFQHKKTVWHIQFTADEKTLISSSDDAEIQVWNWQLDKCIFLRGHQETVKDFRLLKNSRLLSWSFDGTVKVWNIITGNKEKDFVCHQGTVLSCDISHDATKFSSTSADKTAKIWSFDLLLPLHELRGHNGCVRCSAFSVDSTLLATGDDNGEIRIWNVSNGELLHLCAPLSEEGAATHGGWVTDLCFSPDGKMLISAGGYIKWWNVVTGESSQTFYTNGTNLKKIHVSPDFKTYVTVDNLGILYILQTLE
Protocol: as §1
as §2, with “buffer. The eluted proteins were resolved by SDS-PAGE and detected by Western blot analysis with horseradish peroxidase (HRP)-conjugated anti-T7 Ab (Novagen, Madison, Wis.). Bands were then detected using enhanced chemoluminescence kit (Amersham Pharmacia Biotech).” for “buffer.”

c-IAP2 = c-IAP2 (UniProt Q13489 1-604, limits assumed); assay: as above
Chain of c-IAP2 (Q13489 whole entry): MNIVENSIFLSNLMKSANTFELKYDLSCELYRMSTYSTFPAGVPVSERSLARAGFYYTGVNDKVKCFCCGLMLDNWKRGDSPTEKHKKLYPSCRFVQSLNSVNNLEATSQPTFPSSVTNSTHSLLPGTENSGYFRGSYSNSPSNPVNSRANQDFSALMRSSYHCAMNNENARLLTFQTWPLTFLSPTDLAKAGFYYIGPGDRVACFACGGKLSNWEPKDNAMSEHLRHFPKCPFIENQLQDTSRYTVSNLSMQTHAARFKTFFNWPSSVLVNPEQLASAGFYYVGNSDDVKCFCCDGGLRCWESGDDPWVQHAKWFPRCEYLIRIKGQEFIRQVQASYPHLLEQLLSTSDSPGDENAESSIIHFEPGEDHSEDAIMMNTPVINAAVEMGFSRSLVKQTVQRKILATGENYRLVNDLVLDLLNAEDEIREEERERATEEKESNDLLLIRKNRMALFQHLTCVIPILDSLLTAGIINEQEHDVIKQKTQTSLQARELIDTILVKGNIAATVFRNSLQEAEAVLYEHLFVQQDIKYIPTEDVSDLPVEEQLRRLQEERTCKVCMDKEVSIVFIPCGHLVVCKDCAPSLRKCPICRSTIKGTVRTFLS
Protocol: as §1
as §2, with “buffer. The eluted proteins were resolved by SDS-PAGE and detected by Western blot analysis with horseradish peroxidase (HRP)-conjugated anti-T7 Ab (Novagen, Madison, Wis.). Bands were then detected using enhanced chemoluminescence kit (Amersham Pharmacia Biotech).” for “buffer.”

CRADD [3] = target: T2, CRADD; assay: GST pull-down in vitro or co-immunoprecipitation from 293 T cells (T7-CRADD with Flag-ICE-Like, Panel C of FIG. 2)
Protocol: as §2

Flag-tagged RICK = target: T8, Flag-tagged RICK (UniProt O43353 1-540); assay: co-immunoprecipitation from 293 T cells cotransfected with Flag-RICK, T7-Casp1C/A and rising amounts of T7-ICE-Like: IP anti-Flag, western blot anti-T7 [panel B]
T8 construct: Expressed in 293 T cells, precipitated with anti-Flag antibodies; also called Flag-RICK; RIP2; not shown: Flag tag
T8 sequence (O43353 whole entry): as the sequence (O43353 whole entry) above
Protocol: as §2, with “buffer. The eluted proteins were resolved by SDS-PAGE and detected by Western blot analysis with horseradish peroxidase (HRP)-conjugated anti-T7 Ab (Novagen, Madison, Wis.). Bands were then detected using enhanced chemoluminescence kit (Amersham Pharmacia Biotech).” for “buffer.”

RICK [4] = target: T3, RICK; assay: GST pull-down of 35S-labelled RICK (data not shown)
Protocol: as §1

| Binder | binding result (GST) | binding result (CRADD [1]) | binding result (RICK [2]) | binding result (c-CLAP) | binding result (pro-caspase-4) | binding result (pro-caspase-2) | binding result (Apaf-1) | binding result (c-IAP2) | binding result (CRADD [3]) | binding result (Flag-tagged RICK) | binding result (RICK [4]) |
| --- | --- | --- | --- | --- | --- | --- | --- | --- | --- | --- | --- |
| B1 | no binding | no binding | binds | no binding | no binding | no binding | no binding | no binding |  |  |  |
| B2 | no binding |  | no binding | no binding | no binding | no binding | no binding | no binding | no binding |  |  |
| B3 |  |  |  |  |  |  |  |  |  | no binding |  |
| B4 |  |  |  |  |  |  |  |  |  |  | no binding |
